Biological target: T1, His6-NfxB (Pseudomonas aeruginosa PAO1?) (UniProt P32265)
T1 sequence: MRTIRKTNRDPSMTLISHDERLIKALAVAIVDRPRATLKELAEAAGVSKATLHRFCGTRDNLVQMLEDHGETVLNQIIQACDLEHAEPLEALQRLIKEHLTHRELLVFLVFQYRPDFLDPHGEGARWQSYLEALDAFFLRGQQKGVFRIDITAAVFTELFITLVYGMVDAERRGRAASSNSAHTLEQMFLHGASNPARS
Assay: EMSA
Settings: pH 7.0, room temperature, 10 min ([…]

Sequence	binding
ACGCAAATCAGCCATGACACACCCGACCGTTGATTGAAAACGGATCGAATGGTACTTTTTCGAGCTAATTGAGTCAATATTGTCTCAAATGATCTTTTGACAGCTAATTCCTTTGGACGCGAGGCCAGTTTTCTGCACAATGCGCACAATCAGAAAAACCAACCGGGACCCATCGATGACCCTGAT (double strand) [mexC promoter]	binds
TCCAAGCTGCCTTCGGCCAAAGAGGCCTGAGGCATTCAACGACAGCGCCTGCCATGGTGGCGGGCGCTTGCATAGCGTAGTGGCGCGAGCCACACGGGAGGAAAGATGGCTGTTGATATGTTCATCAAGATCGGC (double strand) [hcp1 promoter (phcp1)]	binds
ATCTTTCCTCCCGTGTGGCTCGCGCCACTACGCTATGCAAGCGCCCGCCACCATGGCAGGCGCTGTCGTTGAATGCCTCAGGCCTCTTTGGCCGAAGGCAGCTTGGA (double strand) [hcp1T (hcp1 promoter with potential NfxB motif truncated)]	no binding
